Measurements from PMC8586251, “Cryo-EM structure provides insights into the dimer arrangement of the O-linked β-N-acetylglucosamine transferase OGT” (Nature Communications, 2021).
Positions count from the first letter of the chain named. One block for each molecule: values may come before it.

Assays:
[1] = biological target: O-GlcNAc transferase OGT, full length, isoform 3, double mutant (W208A, I211A) (UniProt O15294)
[2] = biological target: the molecule itself; test: SEC-MALS; SEC-MALLS; Superdex S200 10/300 GL in 20 mM HEPES 7.5, 200 mM NaCl, room temperature; 100 µl of 3 mg/ml OGT injected, 0.5 ml/min; dimer against monomer

relative second order rate constant of glycosyl transfer to TAB1 protein (fluorescent OGT activity assay), against wildtype OGT (% lower than wildtype) [1]: 50
Molecule: O-GlcNAc transferase OGT, full length, isoform 3, double mutant (W208A, I211A) (from UniProt O15294-1 1-1046) (enzyme)

B1: O-GlcNAc transferase OGT, full length, isoform 3, wildtype (construct for SEC-MALLS) (enzyme, UniProt O15294-1 1-1046, looked up)
chain: MASSVGNVADSTEPTKRMLSFQGLAELAHREYQAGDFEAAERHCMQLWRQEPDNTGVLLLLSSIHFQCRRLDRSAHFSTLAIKQNPLLAEAYSNLGNVYKERGQLQEAIEHYRHALRLKPDFIDGYINLAAALVAAGDMEGAVQAYVSALQYNPDLYCVRSDLGNLLKALGRLEEAKACYLKAIETQPNFAVAWSNLGCVFNAQGEIWLAIHHFEKAVTLDPNFLDAYINLGNVLKEARIFDRAVAAYLRALSLSPNHAVVHGNLACVYYEQGLIDLAIDTYRRAIELQPHFPDAYCNLANALKEKGSVAEAEDCYNTALRLCPTHADSLNNLANIKREQGNIEEAVRLYRKALEVFPEFAAAHSNLASVLQQQGKLQEALMHYKEAIRISPTFADAYSNMGNTLKEMQDVQGALQCYTRAIQINPAFADAHSNLASIHKDSGNIPEAIASYRTALKLKPDFPDAYCNLAHCLQIVCDWTDYDERMKKLVSIVADQLEKNRLPSVHPHHSMLYPLSHGFRKAIAERHGNLCLDKINVLHKPPYEHPKDLKLSDGRLRVGYVSSDFGNHPTSHLMQSIPGMHNPDKFEVFCYALSPDDGTNFRVKVMAEANHFIDLSQIPCNGKAADRIHQDGIHILVNMNGYTKGARNELFALRPAPIQAMWLGYPGTSGALFMDYIITDQETSPAEVAEQYSEKLAYMPHTFFIGDHANMFPHLKKKAVIDFKSNGHIYDNRIVLNGIDLKAFLDSLPDVKIVKMKCPDGGDNADSSNTALNMPVIPMNTIAEAVIEMINRGQIQITINGFSISNGLATTQINNKAATGEEVPRTIIVTTRSQYGLPEDAIVYCNFNQLYKIDPSTLQMWANILKRVPNSVLWLLRFPAVGEPNIQQYAQNMGLPQNRIIFSPVAPKEEHVRRGQLADVCLDTPLCNGHTTGMDVLWAGTPMVTMPGETLASRVAASQLTCLGCLELIAKNRQEYEDIAVKLGTDLEYLKKVRGKVWKQRISSPLFNTKQYTMELERLYLQMWEHYAAGNKPDHMIKPVEVTESA
notes: also called OGT wildtype; source: E. coli BL21-Gold(DE3), purified (HisTrap, Q Sepharose, Superdex 200)
stoichiometry N [2]: 2

B2: O-GlcNAc transferase OGT, full length, isoform 3, E206A (enzyme, UniProt O15294-1 1-1046, looked up)
chain: B1 chain with E206A
notes: O-GlcNAc transferase OGT, isoform 3, UniProt O15294-1, full length, site-directed mutant; source: E. coli BL21-Gold(DE3), purified (HisTrap, Q Sepharose, Superdex 200)
stoichiometry N [2]: 2

B3: O-GlcNAc transferase OGT, full length, isoform 3, E215A (enzyme, UniProt O15294-1 1-1046, looked up)
chain: B1 chain with E215A
notes: as for B2
stoichiometry N [2]: 2
